B1: Dystrobrevin beta (Homo sapiens), O60941 (parent)
chain: MIEESGNKRKTMAEKRQLFIEMRAQNFDVIRLSTYRTACKLRFVQKRCNLHLVDIWNMIEAFRDNGLNTLDHTTEISVSRLETVISSIYYQLNKRLPSTHQISVEQSISLLLNFMIAAYDSEGRGKLTVFSVKAMLATMCGGKMLDKLRYVFSQMSDSNGLMIFSKFDQFLKEVLKLPTAVFEGPSFGYTEHSVRTCFPQQRKIMLNMFLDTMMADPPPQCLVWLPLMHRLAHVENVFHPVECSYCRCESMMGFRYRCQQCHNYQLCQNCFWRGHAGGPHSNQHQMKEHSSWKSPAKKLSHAISKSLGCVPTREPPHPVFPEQPEKPLDLAHIVPPRPLTNMNDTMVSHMSSGVPTPTKRLQYSQDIPSHLADEHALIASYVARLQHCARVLDSPSRLDEEHRLIARYAARLAAEAGNVTRPPTDLSFNFDANKQQRQLIAELENKNREILQEIQRLRLEHEQASQPTPEKAQQNPTLLAELRLLRQRKDELEQRMSALQESRRELMVQLEELMKLLKEEEQKQAAQATGSPHTSPTHGGGRPMPMPVRSTSAGSTPTHCPQDSLSGVGGDVQEAFAQGTRRNLRNDLLVAADSITNTMSSLVKELHSAEEGAEEEEEKMQNGKDRG
B2: Transcription initiation factor IIA subunit 1 (Homo sapiens), P52655 (parent)
chain: MANSANTNTVPKLYRSVIEDVINDVRDIFLDDGVDEQVLMELKTLWENKLMQSRAVDGFHSEEQQLLLQVQQQHQPQQQQHHHHHHHQQAQPQQTVPQQAQTQQVLIPASQQATAPQVIVPDSKLIQHMNASNMSAAATAATLALPAGVTPVQQILTNSGQLLQVVRAANGAQYIFQPQQSVVLQQQVIPQMQPGGVQAPVIQQVLAPLPGGISPQTGVIIQPQQILFTGNKTQVIPTTVAAPTPAQAQITATGQQQPQAQPAQTQAPLVLQVDGTGDTSSEEDEDEEEDYDDDEEEDKEKDGAEDGQVEEEPLNSEDDVSDEEGQELFDTENVVVCQYDKIHRSKNKWKFHLKDGIMNLNGRDYIFSKAIGDAEW
partner: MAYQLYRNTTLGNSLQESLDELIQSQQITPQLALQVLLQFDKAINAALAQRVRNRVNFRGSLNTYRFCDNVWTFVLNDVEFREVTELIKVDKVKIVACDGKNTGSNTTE
B3: Fanconi anemia group G protein (Homo sapiens), O15287 (parent)
chain: MSRQTTSVGSSCLDLWREKNDRLVRQAKVAQNSGLTLRRQQLAQDALEGLRGLLHSLQGLPAAVPVLPLELTVTCNFIILRASLAQGFTEDQAQDIQRSLERVLETQEQQGPRLEQGLRELWDSVLRASCLLPELLSALHRLVGLQAALWLSADRLGDLALLLETLNGSQSGASKDLLLLLKTWSPPAEELDAPLTLQDAQGLKDVLLTAFAYRQGLQELITGNPDKALSSLHEAASGLCPRPVLVQVYTALGSCHRKMGNPQRALLYLVAALKEGSAWGPPLLEASRLYQQLGDTTAELESLELLVEALNVPCSSKAPQFLIEVELLLPPPDLASPLHCGTQSQTKHILASRCLQTGRAGDAAEHYLDLLALLLDSSEPRFSPPPSPPGPCMPEVFLEAAVALIQAGRAQDALTLCEELLSRTSSLLPKMSRLWEDARKGTKELPYCPLWVSATHLLQGQAWVQLGAQKVAISEFSRCLELLFRATPEEKEQGAAFNCEQGCKSDAALQQLRAAALISRGLEWVASGQDTKALQDFLLSVQMCPGNRDTYFHLLQTLKRLDRRDEATALWWRLEAQTKGSHEDALWSLPLYLESYLSWIRPSDRDAFLEEFRTSLPKSCDL

Variants of: B1
Conditions: with traf2_human TRAF2, Q12933
Chain of traf2_human TRAF2, Q12933 (Q12933 whole entry): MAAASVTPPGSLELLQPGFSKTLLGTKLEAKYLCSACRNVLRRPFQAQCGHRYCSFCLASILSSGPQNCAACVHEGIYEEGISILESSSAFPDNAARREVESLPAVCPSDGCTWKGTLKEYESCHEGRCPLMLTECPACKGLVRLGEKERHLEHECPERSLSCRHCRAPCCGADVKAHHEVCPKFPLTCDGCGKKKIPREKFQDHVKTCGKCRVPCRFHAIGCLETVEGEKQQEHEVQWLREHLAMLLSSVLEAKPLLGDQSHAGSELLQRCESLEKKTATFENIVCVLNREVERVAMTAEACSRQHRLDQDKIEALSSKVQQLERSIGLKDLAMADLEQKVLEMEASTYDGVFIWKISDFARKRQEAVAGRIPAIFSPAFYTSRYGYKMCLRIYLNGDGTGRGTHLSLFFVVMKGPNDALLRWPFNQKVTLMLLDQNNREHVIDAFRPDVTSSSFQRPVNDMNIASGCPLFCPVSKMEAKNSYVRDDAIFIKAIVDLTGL

| effect of a mutation on the interaction | Variant |
| --- | --- |
| with no effect | S396G |
| with no effect | R80H |

Variants of: B1
Conditions: with lipa1_human PPFIA1, Q13136
Chain of lipa1_human PPFIA1, Q13136 (Q13136 whole entry): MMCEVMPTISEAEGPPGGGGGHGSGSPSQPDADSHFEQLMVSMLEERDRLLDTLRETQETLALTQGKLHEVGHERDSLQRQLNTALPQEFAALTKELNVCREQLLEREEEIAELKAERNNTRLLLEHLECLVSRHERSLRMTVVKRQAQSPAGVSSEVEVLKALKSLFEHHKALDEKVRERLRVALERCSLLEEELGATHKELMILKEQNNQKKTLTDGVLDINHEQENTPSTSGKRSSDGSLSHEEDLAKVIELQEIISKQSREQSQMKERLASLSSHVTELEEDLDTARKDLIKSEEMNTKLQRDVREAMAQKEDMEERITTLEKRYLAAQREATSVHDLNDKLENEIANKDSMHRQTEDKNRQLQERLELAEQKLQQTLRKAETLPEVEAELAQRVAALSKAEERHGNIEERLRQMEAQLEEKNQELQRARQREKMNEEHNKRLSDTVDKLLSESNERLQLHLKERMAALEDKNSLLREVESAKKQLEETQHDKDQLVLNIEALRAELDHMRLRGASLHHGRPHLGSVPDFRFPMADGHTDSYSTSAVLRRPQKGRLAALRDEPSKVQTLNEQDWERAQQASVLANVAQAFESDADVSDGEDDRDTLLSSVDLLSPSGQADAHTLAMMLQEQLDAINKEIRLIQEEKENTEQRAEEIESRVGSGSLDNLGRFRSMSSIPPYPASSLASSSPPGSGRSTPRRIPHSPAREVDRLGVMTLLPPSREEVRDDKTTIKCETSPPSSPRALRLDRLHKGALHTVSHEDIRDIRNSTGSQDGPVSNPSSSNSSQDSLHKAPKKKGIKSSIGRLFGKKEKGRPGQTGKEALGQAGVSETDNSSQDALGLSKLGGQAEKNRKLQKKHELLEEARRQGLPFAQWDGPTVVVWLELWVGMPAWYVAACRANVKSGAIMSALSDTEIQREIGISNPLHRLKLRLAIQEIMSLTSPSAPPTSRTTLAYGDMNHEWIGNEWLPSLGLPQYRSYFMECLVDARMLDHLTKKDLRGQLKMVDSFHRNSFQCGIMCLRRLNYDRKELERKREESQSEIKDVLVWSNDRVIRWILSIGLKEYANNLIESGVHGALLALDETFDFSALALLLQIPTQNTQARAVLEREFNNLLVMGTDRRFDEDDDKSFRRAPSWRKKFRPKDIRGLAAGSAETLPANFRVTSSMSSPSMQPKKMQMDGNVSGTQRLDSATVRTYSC

| effect of a mutation on the interaction | Variant |
| --- | --- |
| with no effect | S396G |

Variants of: B1
Conditions: with tera_human VCP

| effect of a mutation on the interaction | Variant |
| --- | --- |
| with no effect | S396G |
| with no effect | R80H |

Variants of: B1
Conditions: with dmd_human DMD

| effect of a mutation on the interaction | Variant |
| --- | --- |
| with no effect | S396G |

Variants of: B1
Conditions: with cep63_human CEP63, Q96MT8
Chain of cep63_human CEP63, Q96MT8 (Q96MT8 whole entry): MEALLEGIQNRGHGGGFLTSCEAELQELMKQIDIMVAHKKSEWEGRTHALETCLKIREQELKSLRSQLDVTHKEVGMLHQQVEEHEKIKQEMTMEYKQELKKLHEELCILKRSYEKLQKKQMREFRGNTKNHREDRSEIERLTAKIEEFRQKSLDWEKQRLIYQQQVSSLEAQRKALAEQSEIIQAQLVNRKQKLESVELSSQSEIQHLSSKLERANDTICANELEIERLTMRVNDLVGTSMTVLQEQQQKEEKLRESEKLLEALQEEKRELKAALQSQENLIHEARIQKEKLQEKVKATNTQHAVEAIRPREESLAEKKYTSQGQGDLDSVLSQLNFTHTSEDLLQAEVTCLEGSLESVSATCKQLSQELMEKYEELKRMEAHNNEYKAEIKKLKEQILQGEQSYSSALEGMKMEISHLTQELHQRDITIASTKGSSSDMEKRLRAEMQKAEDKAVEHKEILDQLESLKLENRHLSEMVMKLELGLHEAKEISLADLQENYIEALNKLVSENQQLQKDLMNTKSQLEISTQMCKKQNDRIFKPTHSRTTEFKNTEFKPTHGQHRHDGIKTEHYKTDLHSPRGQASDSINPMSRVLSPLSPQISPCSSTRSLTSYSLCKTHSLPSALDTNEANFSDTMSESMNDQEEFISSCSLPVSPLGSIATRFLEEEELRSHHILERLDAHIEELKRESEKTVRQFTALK

| effect of a mutation on the interaction | Variant |
| --- | --- |
| with no effect | R80H |

Variants of: B1
Conditions: with abi2_human ABI2, Q9NYB9
Chain of abi2_human ABI2, Q9NYB9 (Q9NYB9 whole entry): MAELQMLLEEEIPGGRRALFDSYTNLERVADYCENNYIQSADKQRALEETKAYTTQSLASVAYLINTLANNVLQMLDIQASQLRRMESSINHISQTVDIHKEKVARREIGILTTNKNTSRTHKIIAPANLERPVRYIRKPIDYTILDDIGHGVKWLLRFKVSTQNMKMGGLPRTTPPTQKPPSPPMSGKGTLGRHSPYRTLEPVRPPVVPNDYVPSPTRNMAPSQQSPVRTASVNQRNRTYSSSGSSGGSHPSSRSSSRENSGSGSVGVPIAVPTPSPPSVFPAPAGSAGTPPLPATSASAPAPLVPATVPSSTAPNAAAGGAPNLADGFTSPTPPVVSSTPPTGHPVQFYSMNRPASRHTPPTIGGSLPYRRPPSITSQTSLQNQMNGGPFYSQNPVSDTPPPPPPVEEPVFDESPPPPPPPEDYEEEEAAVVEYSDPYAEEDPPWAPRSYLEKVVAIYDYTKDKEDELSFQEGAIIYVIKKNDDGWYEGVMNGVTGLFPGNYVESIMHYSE

| effect of a mutation on the interaction | Variant |
| --- | --- |
| with no effect | R80H |

Variants of: B2
Conditions: with t2ag_human GTF2A2, P52657

| effect of a mutation on the interaction | Variant |
| --- | --- |
| with no effect | P208S |

Variants of: B3
Conditions: with mbip1_human MBIP

| effect of a mutation on the interaction | Variant |
| --- | --- |
| with no effect | S7F |

Variants of: B3
Conditions: with KRT15, P19012
Chain of KRT15, P19012 (P19012 whole entry): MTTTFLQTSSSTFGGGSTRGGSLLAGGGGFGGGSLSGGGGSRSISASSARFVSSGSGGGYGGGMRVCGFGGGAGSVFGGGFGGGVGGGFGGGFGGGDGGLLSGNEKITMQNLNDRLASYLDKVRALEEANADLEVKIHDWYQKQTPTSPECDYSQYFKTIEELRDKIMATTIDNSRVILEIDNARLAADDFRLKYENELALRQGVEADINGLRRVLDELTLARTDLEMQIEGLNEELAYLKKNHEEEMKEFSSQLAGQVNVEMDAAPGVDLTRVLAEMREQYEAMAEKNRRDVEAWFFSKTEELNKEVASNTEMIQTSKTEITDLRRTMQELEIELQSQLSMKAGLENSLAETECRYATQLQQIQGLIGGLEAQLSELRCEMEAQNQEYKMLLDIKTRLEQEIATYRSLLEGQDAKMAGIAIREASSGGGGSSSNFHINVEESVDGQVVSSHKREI

| effect of a mutation on the interaction | Variant |
| --- | --- |
| with no effect | S7F |

Variants of: B3
Conditions: with cenpr_human ITGB3BP

| effect of a mutation on the interaction | Variant |
| --- | --- |
| with no effect | S7F |

Variants of: B3
Conditions: with KRT19, P08727
Chain of KRT19, P08727 (P08727 whole entry): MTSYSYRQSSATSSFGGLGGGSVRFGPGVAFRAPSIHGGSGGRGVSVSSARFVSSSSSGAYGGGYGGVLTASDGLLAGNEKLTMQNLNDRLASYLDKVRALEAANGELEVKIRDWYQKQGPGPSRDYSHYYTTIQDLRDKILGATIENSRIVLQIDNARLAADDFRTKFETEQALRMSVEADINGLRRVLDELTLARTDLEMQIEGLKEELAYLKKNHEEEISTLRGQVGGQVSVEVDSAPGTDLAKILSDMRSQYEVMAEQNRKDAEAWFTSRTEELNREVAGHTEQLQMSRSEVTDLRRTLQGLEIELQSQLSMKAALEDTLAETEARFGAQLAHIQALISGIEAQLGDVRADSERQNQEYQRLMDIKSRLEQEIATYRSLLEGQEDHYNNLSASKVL

| effect of a mutation on the interaction | Variant |
| --- | --- |
| with no effect | S7F |

Source: IntAct's records for PubMed 31515488
